The source of these data is PMC3749867, “Evolutionarily conserved structural changes in phosphatidylinositol 5-phosphate 4-kinase (PI5P4K) isoforms are responsible for differences in enzyme activity and localization” (Biochemical Journal, 2013).

Conditions in all cases: PtdIns5P co-substrate, 10 mM MgCl2, pH 7.4, 30 °C, ATP 0–150 μM
Substrate in the data set “purified protein”: Nc1ncnc2c1ncn2[C@@H]1O[C@H](COP(=O)(O)OP(=O)(O)OP(=O)(O)O)[C@@H](O)[C@H]1O
Briefly: purified protein.

Substrate in data set [1]: Nc1ncnc2c1ncn2[C@@H]1O[C@H](COP(=O)(O)OP(=O)(O)OP(=O)(O)O)[C@@H](O)[C@H]1O
In words: radiometric lipid kinase assay, TLC. The format is biochemical, Homo sapiens. The text has this: radiometric lipid kinase assay, TLC on PI5P4Kβ

Substrate in data set [2]: Nc1ncnc2c1ncn2[C@@H]1O[C@H](COP(=O)(O)OP(=O)(O)OP(=O)(O)O)[C@@H](O)[C@H]1O
In words: radiometric lipid kinase assay, TLC. The format is biochemical, Homo sapiens. The source holds these as a separate data set.

B1: PI5P4Kγ (Homo sapiens) (protein)
chain: ASSSVPPATVSAATAGPGPGFGFASKTKKKHFVQQKVKVFRAADPLVGVFLWGVAHSINELSQVPPPVMLLPDDFKASSKIKVNNHLFHRENLPSHFKFKEYCPQVFRNLRDRFGIDDQDYLVSLTRNPPSESEGSDGRFLISYDRTLVIKEVSSEDIADMHSNLSNYHQYIVKCHGNTLLPQFLGMYRVSVDNEDSYMLVMRNMFSHRLPVHRKYDLKGSLVSREASDKEKVKELPTLKDMDFLNKNQKVYIGEEEKKIFLEKLKRDVEFLVQLKIMDYSLLLGIHDIIRGSEPEEEAPVREDESEVDGDCSLTGPPALVGSYGTSPEGIGGYIHSHRPLGPGEFESFIDVYAIRSAEGAPQKEVYFMGLIDILTQYDAKKKAAHAAKTVKHGAGAEISTVHPEQYAKRFLDFITNIFA
For orientation: Km means the concentration of substrate that gives half-maximal velocity. Broadly, the kcat is the number of substrate molecules converted per active site and unit of time at saturation. Regarding B1, in “purified protein”, the Km was 94.18 µM and the kcat was found to be 5.72e-06 s⁻¹.

B2: PI5P4Kβ (Homo sapiens) (protein)
chain: MSSNCTSTTAVAVAPLSASKTKTKKKHFVCQKVKLFRASEPILSVLMWGVNHTINELSNVPVPVMLMPDDFKAYSKIKVDNHLFNKENLPSRFKFKEYCPMVFRNLRERFGIDDQDYQNSVTRSAPINSDSQGRCGTRFLTTYDRRFVIKTVSSEDVAEMHNILKKYHQFIVECHGNTLLPQFLGMYRLTVDGVETYMVVTRNVFSHRLTVHRKYDLKGSTVAREASDKEKAKDLPTFKDNDFLNEGQKLHVGEESKKNFLEKLKRDVEFLAQLKIMDYSLLVGIHDVDRAEQEEMEVEERAEDEECENDGVGGNLLCSYGTPPDSPGNLLSFPRFFGPGEFDPSVDVYAMKSHESSPKKEVYFMAIIDILTPYDTKKKAAHAAKTVKHGAGAEISTVNPEQYSKRFNEFMSNILT
notes: full-length cDNA in pGEX6P, E. coli BL21(DE3), GST fusion or GST cleaved by PreScission; mutant PI5P4Kβ+ His-tagged; homodimer
As for B2, in data set [1], the Km was 67.05 µM and the kcat turned out to be 9.55e-05 s⁻¹.

B3: PI5P4Kα (Homo sapiens) (protein)
chain: MATPGNLGSSVLASKTKTKKKHFVAQKVKLFRASDPLLSVLMWGVNHSINELSHVQIPVMLMPDDFKAYSKIKVDNHLFNKENMPSHFKFKEYCPMVFRNLRERFGIDDQDFQNSLTRSAPLPNDSQARSGARFHTSYDKRYIIKTITSEDVAEMHNILKKYHQYIVECHGITLLPQFLGMYRLNVDGVEIYVIVTRNVFSHRLSVYRKYDLKGSTVAREASDKEKAKELPTLKDNDFINEGQKIYIDDNNKKVFLEKLKKDVEFLAQLKLMDYSLLVGIHDVERAEQEEVECEENDGEEEGESDGTHPVGTPPDSPGNTLNSSPPLAPGEFDPNIDVYGIKCHENSPRKEVYFMAIIDILTHYDAKKKAAHAAKTVKHGAGAEISTVNPEQYSKRFLDFIGHILT
notes: full-length cDNA in pGEX6P, E. coli BL21(DE3), GST fusion or GST cleaved by PreScission; His6-tagged version used as standard for kcat conversion; homodimer
On to B3, for which, in data set [2], the Km was 3.94 µM and the kcat worked out at 0.0105 s⁻¹.
